Measured values as given in patent CN112430265A (INST FOR VIRAL DISEASE CONTROL AND PREVENTION CHINESE …, dated 2021).

Molecular target: 新型冠状病毒S1蛋白 (纯化) (SARS-CoV-2, UniProt P0DTC2 14-685)

B1: 人源抗新冠病毒中和性抗体nCoV-61 全抗体IgG (antibody, V domains shown)
VH: EVQLVESGGGLVQPGGSLRLSCEASEIIVNRNYMNWVRQAPGKGLEWVSIIYPGGSTFYADSVKGRFTISRDNSKNTMYLQMNSLRAEDTAVYYCARSYGDFYVDFWGQGTLVTVSS
VL: QSVLTQPPSVSAAPGQKVTISCSGSSSNIGNNYVSWYQQLPGTAPKLLIYDNNKRPSGIPDRFSGSKSGTSATLGITGLQTGDEADYYCGTWDSSLSAWVFGGGTKLTVLG
  Kd: 3.33 pM
